Consider nine molecules from PMC9177983, “Mechanism of transcription modulation by the transcription-repair coupling factor”.

For series [1], the target named is T1, Mfd (Escherichia coli, UniProt P30958 1-1148). As to the kind of experiment: SPR; 0.5 mM ATPgS; SPR: 30 mM Tris/HCl pH 7.6, 40 mM KCl, 5 mM MgCl2, 0.005% P20, 0.25 mM EDTA, 0.5 mM DTT, 0.5 mM ATPgS, 20 C; smFRET: 20 mM Tris/HCl pH 8.0, 40 mM KCl, 5 mM MgCl2, 1 mM 2-mercaptoethanol. The settings on record: protein: recombinant, tags: none stated. On the technique in general: In SPR one partner is held on a chip, and binding of the other changes the refractive index at the surface.

Another series deals with Mfd(R953A) (Escherichia coli, UniProt P30958 1-1148, R953A). The description is as above. The settings on record: protein: recombinant; tags: none stated; label: 5' biotin on AS18; 5' overhang 6 nt (template).
The target of the next series is Mfd;RNAP core (Escherichia coli;Escherichia coli, UniProt P30958;P0A7Z4;P0A8V2;P0A8T7;P0A800 1-1148;1-329;1-1342;1-1407;2-91, |). Description: SPR; 0.5 mM ATPgS; Mfd titrated onto immobilized RNAP EC; SPR: 30 mM Tris/HCl pH 7.6, 40 mM KCl, 5 mM MgCl2, 0.005% P20, 0.25 mM EDTA, 0.5 mM DTT, 0.5 mM ATPgS, 20 C; smFRET: 20 mM Tris/HCl pH 8.0, 40 mM KCl, 5 mM MgCl2, 1 mM 2-mercaptoethanol. The settings on record: protein: recombinant;recombinant; tags: none stated;His; copies: 1;2;1;1;1; label: 3' bioTEG on NT; iCy3 on TS; transcription bubble with RNA:DNA hybrid.

Series [2] concerns the target T1, Mfd. As to the kind of experiment: SPR; ATPgS; SPR: 30 mM Tris/HCl pH 7.6, 40 mM KCl, 5 mM MgCl2, 0.005% P20, 0.25 mM EDTA, 0.5 mM DTT, 0.5 mM ATPgS, 20 C; smFRET: 20 mM Tris/HCl pH 8.0, 40 mM KCl, 5 mM MgCl2, 1 mM 2-mercaptoethanol. The settings on record: protein: recombinant; tags: none stated; label: 3' bioTEG on NT; 9-nt non-complementary bubble (dT9 in NT); blunt ends.

B1: dT15_S18:bio_AS18 (dsDNA)
DNA 1: TTTTTTTTTTTTTTTGCCTCGCTGCCGTCGCCA
DNA 2: TGGCGACGGCAGCGAGGC
A word on the Kd: it is a measure of binding affinity in units of concentration. For the molecule B1, the Kd with Mfd [1] (label: 5' biotin on AS18, 5' overhang 15 nt (template)) is 220 ± 10 nM.

B2: S18:bio_AS18 (dsDNA)
DNA 1: GCCTCGCTGCCGTCGCCA
DNA 2: TGGCGACGGCAGCGAGGC
B2: in the series with Mfd [1] (label: 5' biotin on AS18, blunt), the Kd turned out to be 90 ± 4 nM.

B3: dT6_S18:bio_AS18 (dsDNA)
DNA 1: TTTTTTGCCTCGCTGCCGTCGCCA
DNA 2: TGGCGACGGCAGCGAGGC
On to B3, for which the binding signal in the series with Mfd(R953A) is 2.3 fold weaker Kd than wild type.

B4: bio_dT40_S18 58-mer ssDNA (ssDNA)
DNA: TTTTTTTTTTTTTTTTTTTTTTTTTTTTTTTTTTTTTTTTGCCTCGCTGCCGTCGCCA
Regarding B4, the Kd with Mfd [1] (label: 5' biotin, single strand) was about 4000 nM.

B5: dT40_S18:bio_AS18 (dsDNA)
DNA 1: B4 DNA
DNA 2: TGGCGACGGCAGCGAGGC
For the molecule B5, in the series with Mfd [1] (label: 5' biotin on AS18, 18 bp with 5' overhang 40 nt), the Kd is 300 ± 10 nM.

B6: Cy3_dT40_S18:bio_AS18_Cy5 (dsDNA)
DNA 1: B4 DNA
DNA 2: TGGCGACGGCAGCGAGGC
Regarding B6, in the series with Mfd [1] (label: 5' Cy3, 5' biotin and 3' Cy5 on AS18, 18 bp with 5' overhang 40 nt), the Kd was 390 ± 10 nM.

B7: NT_49_bio:TS_49 (dsDNA)
DNA 1: CACTACTGCGACTTACAGACATCGAGAGGGTAATGGCGAATAGCACTGA
DNA 2: TCAGTGCTATTCGCCATTACCCTCTCGATGTCTGTAAGTCGCAGTAGTG
modifications: internal Cy3 in TS_49 after nt 31
As to B7, the Kd in the series with Mfd [1] (label: 3' bioTEG on NT, iCy3 on TS, blunt) stood at 170 ± 20 nM.

B8: EC scaffold 49-mer (TS_49:NT_49_bio:RNA_15) (mixed)
DNA 1: B7 DNA 2
DNA 2: B7 DNA 1
RNA: AUAUAUAUCGAGAGG
modifications: internal Cy3 in TS_49 after nt 31
Consider B8, for which the Kd in the series with Mfd;RNAP core came out at 127 ± 6 nM.

B9: 49-mer with 9-nt bubble (NT_49_bio_bubble:TS_49) (dsDNA)
DNA 1: CACTACTGCGACTTACAGACTTTTTTTTTGTAATGGCGAATAGCACTGA
DNA 2: B7 DNA 2
As to B9, the Kd in the series with Mfd [2] amounted to 395 ± 7 nM.
